Laboratory results: paper PMC4772727
Where two headings read alike, the source gives them in different places.

B1: C250T TERT promoter probe (dsDNA)
DNA 1: GTCCCGACCCCTTCCGGGTCCCCGGC
DNA 2: GCCGGGGACCCGGAAGGGGTCGGGAC
B2: WT TERT promoter probe (dsDNA)
DNA 1: GTCCCGACCCCTCCCGGGTCCCCGGC
DNA 2: GCCGGGGACCCGGGAGGGGTCGGGAC

Experiments:
Experiment in all cases: EMSA
GST-ETS1 [1] = target: T1, GST-ETS1 (Homo sapiens, UniProt P14921 1-441)
T1 sequence: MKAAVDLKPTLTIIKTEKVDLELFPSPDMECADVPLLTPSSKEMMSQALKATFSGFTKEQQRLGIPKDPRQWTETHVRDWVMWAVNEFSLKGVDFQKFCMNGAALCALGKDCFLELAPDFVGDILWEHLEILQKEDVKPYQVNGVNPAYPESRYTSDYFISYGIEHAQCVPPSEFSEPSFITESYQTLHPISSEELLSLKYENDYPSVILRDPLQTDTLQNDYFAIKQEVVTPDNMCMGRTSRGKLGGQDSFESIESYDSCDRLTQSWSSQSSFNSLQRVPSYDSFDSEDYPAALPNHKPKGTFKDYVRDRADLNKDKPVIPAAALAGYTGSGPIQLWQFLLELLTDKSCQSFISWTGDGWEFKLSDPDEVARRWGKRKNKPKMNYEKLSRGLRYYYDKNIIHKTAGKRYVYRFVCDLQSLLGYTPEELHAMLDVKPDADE

GST-p52 (WT);GST-ETS1 = target: T2, GST-p52 (WT);GST-ETS1 (Homo sapiens;Homo sapiens, UniProt Q00653;P14921 1-454;1-441, |)
T2 sequence 1: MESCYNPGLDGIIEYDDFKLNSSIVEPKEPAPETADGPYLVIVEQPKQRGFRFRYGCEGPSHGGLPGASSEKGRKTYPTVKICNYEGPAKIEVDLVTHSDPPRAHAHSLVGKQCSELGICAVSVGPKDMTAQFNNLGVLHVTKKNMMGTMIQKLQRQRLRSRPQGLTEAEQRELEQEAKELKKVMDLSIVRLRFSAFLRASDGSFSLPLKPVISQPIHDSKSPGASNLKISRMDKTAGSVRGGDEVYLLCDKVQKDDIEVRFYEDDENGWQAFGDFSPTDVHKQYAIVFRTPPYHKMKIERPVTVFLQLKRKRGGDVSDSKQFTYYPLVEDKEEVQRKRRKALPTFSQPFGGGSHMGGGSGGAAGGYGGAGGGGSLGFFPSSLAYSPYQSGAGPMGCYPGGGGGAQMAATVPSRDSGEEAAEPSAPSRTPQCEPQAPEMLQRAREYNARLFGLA
T2 sequence 2: T1 sequence

GST-p52 (WT) [2] = target: T3, GST-p52 (WT) (Homo sapiens, UniProt Q00653 1-454)
T3 sequence: T2 sequence 1

GST-ETS1 [3] = target: T1, GST-ETS1; remark: listed apart in the source
GST-p52 (WT) [4] = target: T3, GST-p52 (WT); remark: listed apart in the source

| Binder | binding result (GST-ETS1 [1]) | binding result (GST-p52 (WT);GST-ETS1) | binding result (GST-p52 (WT) [2]) | binding result (GST-ETS1 [3]) | binding result (GST-p52 (WT) [4]) |
| --- | --- | --- | --- | --- | --- |
| B1 | binds | binds | binds |  |  |
| B2 |  |  |  | no binding | binds |
